The values below come from patent US20250304644A1, “PEPTIDES TRIPLE AGONISTS OF GIP, GLP-1 AND GLP-2” (BAINAN BIOTECH APS, priority 2021, published 2025).

Where no end group is shown, it is not given here. [ ]: non-standard residue; d: D form. The star is where a group is joined. Decanoyl = CCCCCCCCCC(=O)*; Aib = CC(C)(N)C(=O)O

T1: human GIPR (glucose-dependent insulinotropic polypeptide receptor) (human, UniProt P48546 22-466)
T1 sequence (looked up): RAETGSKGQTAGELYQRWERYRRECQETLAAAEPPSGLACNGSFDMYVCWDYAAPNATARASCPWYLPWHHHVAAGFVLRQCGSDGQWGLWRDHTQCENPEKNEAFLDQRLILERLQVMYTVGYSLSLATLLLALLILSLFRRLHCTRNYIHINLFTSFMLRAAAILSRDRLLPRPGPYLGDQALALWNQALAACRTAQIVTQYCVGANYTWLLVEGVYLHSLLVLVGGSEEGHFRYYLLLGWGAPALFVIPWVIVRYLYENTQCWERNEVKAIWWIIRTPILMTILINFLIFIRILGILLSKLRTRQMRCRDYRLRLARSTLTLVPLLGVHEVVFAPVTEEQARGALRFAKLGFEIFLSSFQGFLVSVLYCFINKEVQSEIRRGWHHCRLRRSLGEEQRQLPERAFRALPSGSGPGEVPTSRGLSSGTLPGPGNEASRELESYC

T2: human GLP-2R (glucagon-like peptide-2 receptor) (human, UniProt O95838 1-553)
T2 sequence (looked up): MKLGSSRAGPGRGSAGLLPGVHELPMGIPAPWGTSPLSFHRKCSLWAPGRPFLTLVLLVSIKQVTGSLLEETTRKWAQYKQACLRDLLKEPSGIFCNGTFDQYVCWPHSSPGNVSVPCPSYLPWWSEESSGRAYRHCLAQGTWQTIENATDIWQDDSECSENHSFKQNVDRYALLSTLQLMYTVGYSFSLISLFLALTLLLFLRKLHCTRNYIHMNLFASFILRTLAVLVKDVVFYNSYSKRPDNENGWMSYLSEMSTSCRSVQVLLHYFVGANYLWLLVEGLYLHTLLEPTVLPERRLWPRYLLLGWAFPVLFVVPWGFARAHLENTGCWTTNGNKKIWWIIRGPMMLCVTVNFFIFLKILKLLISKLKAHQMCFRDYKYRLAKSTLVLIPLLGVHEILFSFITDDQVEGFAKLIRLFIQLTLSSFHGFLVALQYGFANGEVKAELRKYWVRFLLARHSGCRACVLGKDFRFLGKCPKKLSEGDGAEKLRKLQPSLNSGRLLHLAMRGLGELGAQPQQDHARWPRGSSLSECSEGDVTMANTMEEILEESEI

B1: Compound 8 (peptide)
peptide: H-H[Aib]DGTFISDYSTILDNLAAREFINWLIQTKITK(Decanoyl)-NH2
SMILES: CCCCCCCCCC(=O)NCCCC[C@H](NC(=O)[C@@H](NC(=O)[C@@H](NC(=O)[C@H](CCCCN)NC(=O)[C@@H](NC(=O)[C@H](CCC(N)=O)NC(=O)[C@@H](NC(=O)[C@H](CC(C)C)NC(=O)[C@H](Cc1c[nH]c2ccccc12)NC(=O)[C@H](CC(N)=O)NC(=O)[C@@H](NC(=O)[C@H](Cc1ccccc1)NC(=O)[C@H](CCC(=O)O)NC(=O)[C@H](CCCNC(=N)N)NC(=O)[C@H](C)NC(=O)[C@H](C)NC(=O)[C@H](CC(C)C)NC(=O)[C@H](CC(N)=O)NC(=O)[C@H](CC(=O)O)NC(=O)[C@H](CC(C)C)NC(=O)[C@@H](NC(=O)[C@@H](NC(=O)[C@H](CO)NC(=O)[C@H](Cc1ccc(O)cc1)NC(=O)[C@H](CC(=O)O)NC(=O)[C@H](CO)NC(=O)[C@@H](NC(=O)[C@H](Cc1ccccc1)NC(=O)[C@@H](NC(=O)CNC(=O)[C@H](CC(=O)O)NC(=O)C(C)(C)NC(=O)[C@@H](N)Cc1c[nH]cn1)[C@@H](C)O)[C@@H](C)CC)[C@@H](C)O)[C@@H](C)CC)[C@@H](C)CC)[C@@H](C)CC)[C@@H](C)O)[C@@H](C)CC)[C@@H](C)O)C(N)=O
B2: Compound 4 (peptide)
peptide: H[Aib]DGTFISDYSTILDLLAARDFINWLIQTKITK(Decanoyl)-NH2
modifications: N-terminus assumed
SMILES: CCCCCCCCCC(=O)NCCCC[C@H](NC(=O)[C@@H](NC(=O)[C@@H](NC(=O)[C@H](CCCCN)NC(=O)[C@@H](NC(=O)[C@H](CCC(N)=O)NC(=O)[C@@H](NC(=O)[C@H](CC(C)C)NC(=O)[C@H](Cc1c[nH]c2ccccc12)NC(=O)[C@H](CC(N)=O)NC(=O)[C@@H](NC(=O)[C@H](Cc1ccccc1)NC(=O)[C@H](CC(=O)O)NC(=O)[C@H](CCCNC(=N)N)NC(=O)[C@H](C)NC(=O)[C@H](C)NC(=O)[C@H](CC(C)C)NC(=O)[C@H](CC(C)C)NC(=O)[C@H](CC(=O)O)NC(=O)[C@H](CC(C)C)NC(=O)[C@@H](NC(=O)[C@@H](NC(=O)[C@H](CO)NC(=O)[C@H](Cc1ccc(O)cc1)NC(=O)[C@H](CC(=O)O)NC(=O)[C@H](CO)NC(=O)[C@@H](NC(=O)[C@H](Cc1ccccc1)NC(=O)[C@@H](NC(=O)CNC(=O)[C@H](CC(=O)O)NC(=O)C(C)(C)NC(=O)[C@@H](N)Cc1c[nH]cn1)[C@@H](C)O)[C@@H](C)CC)[C@@H](C)O)[C@@H](C)CC)[C@@H](C)CC)[C@@H](C)CC)[C@@H](C)O)[C@@H](C)CC)[C@@H](C)O)C(N)=O
B3: Compound 7 (peptide)
peptide: H-H[Aib]DGTFISDYSTILENLAARDFINWLIQTKITK(Decanoyl)-NH2
SMILES: CCCCCCCCCC(=O)NCCCC[C@H](NC(=O)[C@@H](NC(=O)[C@@H](NC(=O)[C@H](CCCCN)NC(=O)[C@@H](NC(=O)[C@H](CCC(N)=O)NC(=O)[C@@H](NC(=O)[C@H](CC(C)C)NC(=O)[C@H](Cc1c[nH]c2ccccc12)NC(=O)[C@H](CC(N)=O)NC(=O)[C@@H](NC(=O)[C@H](Cc1ccccc1)NC(=O)[C@H](CC(=O)O)NC(=O)[C@H](CCCNC(=N)N)NC(=O)[C@H](C)NC(=O)[C@H](C)NC(=O)[C@H](CC(C)C)NC(=O)[C@H](CC(N)=O)NC(=O)[C@H](CCC(=O)O)NC(=O)[C@H](CC(C)C)NC(=O)[C@@H](NC(=O)[C@@H](NC(=O)[C@H](CO)NC(=O)[C@H](Cc1ccc(O)cc1)NC(=O)[C@H](CC(=O)O)NC(=O)[C@H](CO)NC(=O)[C@@H](NC(=O)[C@H](Cc1ccccc1)NC(=O)[C@@H](NC(=O)CNC(=O)[C@H](CC(=O)O)NC(=O)C(C)(C)NC(=O)[C@@H](N)Cc1c[nH]cn1)[C@@H](C)O)[C@@H](C)CC)[C@@H](C)O)[C@@H](C)CC)[C@@H](C)CC)[C@@H](C)CC)[C@@H](C)O)[C@@H](C)CC)[C@@H](C)O)C(N)=O
B4: Compound 15 (peptide)
peptide: H[Aib]DGTFISDYSTILDNIAARDFINWLIQTKITK(Decanoyl)-NH2
modifications: N-terminus assumed
SMILES: CCCCCCCCCC(=O)NCCCC[C@H](NC(=O)[C@@H](NC(=O)[C@@H](NC(=O)[C@H](CCCCN)NC(=O)[C@@H](NC(=O)[C@H](CCC(N)=O)NC(=O)[C@@H](NC(=O)[C@H](CC(C)C)NC(=O)[C@H](Cc1c[nH]c2ccccc12)NC(=O)[C@H](CC(N)=O)NC(=O)[C@@H](NC(=O)[C@H](Cc1ccccc1)NC(=O)[C@H](CC(=O)O)NC(=O)[C@H](CCCNC(=N)N)NC(=O)[C@H](C)NC(=O)[C@H](C)NC(=O)[C@@H](NC(=O)[C@H](CC(N)=O)NC(=O)[C@H](CC(=O)O)NC(=O)[C@H](CC(C)C)NC(=O)[C@@H](NC(=O)[C@@H](NC(=O)[C@H](CO)NC(=O)[C@H](Cc1ccc(O)cc1)NC(=O)[C@H](CC(=O)O)NC(=O)[C@H](CO)NC(=O)[C@@H](NC(=O)[C@H](Cc1ccccc1)NC(=O)[C@@H](NC(=O)CNC(=O)[C@H](CC(=O)O)NC(=O)C(C)(C)NC(=O)[C@@H](N)Cc1c[nH]cn1)[C@@H](C)O)[C@@H](C)CC)[C@@H](C)O)[C@@H](C)CC)[C@@H](C)CC)[C@@H](C)CC)[C@@H](C)CC)[C@@H](C)O)[C@@H](C)CC)[C@@H](C)O)C(N)=O
B5: Compound 3 (peptide)
peptide: H[Aib]DGTFISDYATILDNLAARDFINWLIQTKITK(Decanoyl)-OH
modifications: N-terminus assumed
SMILES: CCCCCCCCCC(=O)NCCCC[C@H](NC(=O)[C@@H](NC(=O)[C@@H](NC(=O)[C@H](CCCCN)NC(=O)[C@@H](NC(=O)[C@H](CCC(N)=O)NC(=O)[C@@H](NC(=O)[C@H](CC(C)C)NC(=O)[C@H](Cc1c[nH]c2ccccc12)NC(=O)[C@H](CC(N)=O)NC(=O)[C@@H](NC(=O)[C@H](Cc1ccccc1)NC(=O)[C@H](CC(=O)O)NC(=O)[C@H](CCCNC(=N)N)NC(=O)[C@H](C)NC(=O)[C@H](C)NC(=O)[C@H](CC(C)C)NC(=O)[C@H](CC(N)=O)NC(=O)[C@H](CC(=O)O)NC(=O)[C@H](CC(C)C)NC(=O)[C@@H](NC(=O)[C@@H](NC(=O)[C@H](C)NC(=O)[C@H](Cc1ccc(O)cc1)NC(=O)[C@H](CC(=O)O)NC(=O)[C@H](CO)NC(=O)[C@@H](NC(=O)[C@H](Cc1ccccc1)NC(=O)[C@@H](NC(=O)CNC(=O)[C@H](CC(=O)O)NC(=O)C(C)(C)NC(=O)[C@@H](N)Cc1c[nH]cn1)[C@@H](C)O)[C@@H](C)CC)[C@@H](C)O)[C@@H](C)CC)[C@@H](C)CC)[C@@H](C)CC)[C@@H](C)O)[C@@H](C)CC)[C@@H](C)O)C(=O)O

For one assay, the target named is T1, human GIPR (glucose-dependent …). The assay can be described thus: cell-based or functional assay.
Turning to B1, the “EC50 (nM) GIPR” value amounted to 1.12 nM, the “Efficacy GIPR” value was determined as 99 and the “pEC50 GIPR” value is 9.
For B2, the “EC50 (nM) GIPR” value is 1.12 nM, the “Efficacy GIPR” value came to 102 and the “pEC50 GIPR” value is 9.
As to B3, the “EC50 (nM) GIPR” value amounted to 0.794 nM, the “Efficacy GIPR” value came to 96 and the “pEC50 GIPR” value was found to be 9.1.
On to B4, for which the “EC50 (nM) GIPR” value is 0.794 nM, the “Efficacy GIPR” value was 98 and the “pEC50 GIPR” value is 9.1.
As to B5, the “Efficacy GIPR” value is 80 and the “pEC50 GIPR” value worked out at 9.2.
For HXDGTFISDYSTILDNLAARDFINWLIQTKITK (Aib at position 2; K33 acylated with C10, K(C10); C-terminus -OH) [Compound 2], the “Efficacy GIPR” value was determined as 99.

Another assay addresses T2, human GLP-2R (glucagon-like peptide-2 …). Description: cell-based or functional assay.
With B2, the “EC50 (nM) GLP-2R” value was 28.2 nM, the “Efficacy GLP-2R” value is 92 and the “logEC50 GLP-2R” value is 7.6.
Taken in the same sequence, the figures for B3 were 12.6 nM, 97 and 7.9.
For the molecule B5, the “EC50 (nM) GLP-2R” value stood at 2.8 nM, the “Efficacy GLP-2R” value was determined as 101 and the “logEC50 GLP-2R” value came out at 8.6.
As for HXDGTFISDYSTILDNLAARDFINWLIQTKITK (Aib at position 2; K33 acylated with C10, K(C10); C-terminus -OH) [Compound 2], the “Efficacy GLP-2R” value worked out at 105.

The target in another assay is human GLP-1R (glucagon-like peptide-1 receptor) (human, UniProt P43220 24-463). The assay can be described thus: cell-based or functional assay.
On to B1, for which the “EC50 (nM) GLP-1R” value was 2.24 nM, the “Efficacy GLP-1R” value came out at 98 and the “logEC50 GLP-1R” value amounted to 8.7.
Taken in the same sequence, the figures for B2 were 25.1 nM, 82 and 7.6.
Taken in the same sequence, the figures for B4 were 4.73 nM, 90 and 8.3.
The matching figures for B5: 1.78 nM, 94 and 8.8.
HXDGTFISDYSTILDNLAARDFINWLIQTKITK (Aib at position 2; K33 acylated with C10, K(C10); C-terminus -OH) [Compound 2]: the “Efficacy GLP-1R” value stood at 84.
